Source: the nanobody polyreactivity screen of Harvey et al. (2022)

Experiment: yeast display, Sf9 membrane polyspecificity reagent, FACS + sequencing; frameworks hold sequencing errors
How it was run: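 Using colony PCR, genes from sorted yeast display clones were amplified, then sequenced on MiSeq at 2 × 250 and filtered by CDR length. The clones had been stained with 10% biotinylated, detergent-solubilized Sf9 membrane reagent for 1 hour at 4 °C and sorted by FACS into low and high (top ~1%) gates on anti-HA and streptavidin fluorescence. Polyreactivity labels come from the gate of origin.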

Sequence	polyreactivity (PSR sort gate)
QVQLVESGGGLVQAGGSLRLSCSASGSTFRVYAMGWYRQAPGKERELVAAISWSGGRTYYADSVKGRFTISRDNAKNTVYLQMNSLKPEDTAVYYCAADTYGRYDYWGQGTQVTVSS	high polyreactivity
QVQLVESGGGLVQAGGSLRLSCAASGNTFATYALGWYRQAPGKERELVAAITWSGGSTYYADSVKGRFTISRDNAKNTVYLQMNSLKPEDTAVYYCAADYLYYAIPAYYWDTGYDYWGQGTQVTVSS	low polyreactivity
QVQLVESGGGLVQAGGSLRLSCAASGNIFGVYTMGWYRQAPGKERELVAVITSGGRTYYADSVKGRFTISRDNAKNTVYLQMNSLKPADTAVYYCAADIRYTREEYWGQGPQVTVSS	high polyreactivity
QVQLVESGGGLVQAGGSLRLSCAASGNTFSWYAMGWYRQAPGKERELVAVIRDGSTYYADSVKGRFTISRDNAKNTVYLQMNRLKPEDTAVYYCRYDIWVWWSGAYDYWGQGTQVTVSS	low polyreactivity
QVQLVESGGGLVQAGGSLRLSCAASGITFTIYAMGCNRQAPGKERELVAAITWTSDITHYADSVKGRVTISRDNAKNTDYLQMNSLKPEDTAVYYCGATTWDEYDYWGQGTQVTVSW	high polyreactivity
QVQLVESGGGLVQAGGSFRLSCAASGRIFSPNAMGWYRQAPGKEREFVAAITWRAGTTYYADSVKGRFTISRDNAKNTVYLLMNSLKPEDTAVYYCAAGRRLGYGYWGQGTQVTVSS	high polyreactivity
QVQLVESGGGLVQAGGSLRLSCAASGITFYGNAMGWYRQAPGKERELVAGIRSSGGDTYYADSVKGRFTISRDNAKNTVYLQMNSLKPEDTAVYYCAADFDWFIWGYDYWGQGTQVTVSS	low polyreactivity
QVQLVESGGGLVQAGGSLRLSCAASGRTFIWNAMGWYRQAPGKERELVADISIRGGSTNYADSVKGRFTISRDNAKNTVYLQMNSLKPEDTAVYYCAADYYDSGNDYWGQGTQVTVSS	low polyreactivity
QVQLVESGGGLVQAGGSLRLSCAASGLIFRANSMGWYRQPPGKVRELVAAISSGGSTYYADSVKGRFTISRDNAKNTVYLQMNSLIPEDTAFYYCAALGQSPSRFGYWGQGTQVTVSS	low polyreactivity
QVQLVESGGGLVQAGGSLRLSCAASGFIFAYNAMGWYRQAPGKERELVAAISWSGGSTYYADSVKGRFTISRDNAKNTVYLQMNSLKPEDTAVYYCNAFSYYGARYDYWGLGTQVTVSS	high polyreactivity
QVQLVESGGGLVQAGGSLRLICAASGSIFDWNAMGWYRQAPGKERELVATISWDGGSTYYADSVKGRFTISRDNAKNTVYLQMNSLKPEDTAVYYCATVFTGKPAYYARTKYDYWGQGTQVNVSS	low polyreactivity
QVQLVESGGGLVQAGGSLRLSCAASGSIFDRNAMGRYRQAPGKERELVAAITSGGSTYYADSVKGRFTISRDNAKNTVYFQMNSLKPEDTAVYYCNADTDPPVPLYYWGQGTQVNVSS	low polyreactivity
QVQLVESGGGLVQAGGSLRLSCAASGSTFRRYAMGWYRQAPGKERELVAAISSGGSTYYADSVKGRFTISRDNAKNTVYLQMNSLKPEDTALYYCAKRPLKRQIPAVGYDYWGQGTQVTVSS	high polyreactivity
QVQLVESGGGLVQAGGSLRLSCAASGSTFWLNAMGWYRPAPGKEWEFVAAITVRGGSTYYADSVKGRFTISRDNAKNTVYLQMNSLKPEDTAVYYCNKGSIEKTEMEYWGQGTQVTVSS	low polyreactivity
QVQLVESGGGLVQAGGSLRLSCAASGRTFSVYTMGWYREAPGQERELVAAISSTGRTNYADSVKGRFTISRDNAKNTVYLQMNSQKPEATAVYDCNAGVRNSYTRHALVTAYYLYYYWRQGTQVTVSS	high polyreactivity
QVQLVESGGGLVQAGGSLLLSCAASGRTFYVYAMGWYRQAPGKERELVAAITSGGRTYYADSVKGRFTISRDNAKNTVYLQMNRLKPEDTAVYYCNARRTSRSYSFNYWGQGTQVTVSS	high polyreactivity
QVQLVESGGGLVQAGGSLRLSCAASGSIFFPNAMGWYRQAPGKERELVAAITSTSTNYADSVKGRCTNSRDNAKNTVYLQLNSLKPEDTAVYYCAADGEFRRAWYEGDYWGQGTQVTVSS	low polyreactivity
QVQLVESGGGLVQAGGSLRLSCAASGSIFRKNAMGWYRQAPGKERELVATISGGGSTTYADSVKGRFTISRDNAKNTVYLQMNSLKPEDTADYYCAARSTWFQIRYGYWGQGTQVTVSS	high polyreactivity
QVQLVESGGGLVQAGGSLRLSCAASGSTFTLYVMGWYRQAPGKERELVAAISRGDTTNYADSVKGRFTISRDNAKNTVYLQMNSLKPEDTAVYYCAATYPTFFYWSKGYERDYWGQGTQVTVSS	low polyreactivity
QVQLVESGGGVVQAGGSLRLSCAASGSIFGVYAMGWYRQAPGQERELVAAIDSGSSTDYADSVKGRFTISRDNAKNTVYLQMNSLKPEDTAGYYCYPLDLAPVDYWGQGTQVTVSS	low polyreactivity
QVQLVESGGGLVQAGGSLRLSCAASGITFRPYTMGWYRQAPGKERELVATINWSGGSTYYADSVKGRFTISRDNAKNTVYLQMNSLKPEDTAVYYCAVTWYVRRWYGYWGQGTQVTVSS	high polyreactivity

Sequence	polyreactivity (PSR sort gate)
QVQRVESGGGLGQAGGILLLSCAASGFTFKWYSMGWYRQARGKERELVAGISRRGGTTNYADSFKGRFTISRHNAKNTVNLQINSLKPEDPPVYYCAAESQLTKYYYWGQGTQVTVSS	high polyreactivity
QVQLVESVGGLVQAGRSHRLSGAASCFTFTGYALGWYRQAPGKEREFVAAISRGGSTKYADSVMGRFTISRDNAKNTVYLQMNSLKPEDTAVYYCDASPVYGISRYTLGIYNYGGQGTQVTVSS	high polyreactivity
QVQLVESGGGLVQAGGSLRLSCAASGSTLHLYAMGWYRQAPGKERELVADITSGGDTYYADSVKGRFTISRDNAKNTVYLQMNSLKPEDTAVYYCNAVYEGRYEYAYYYRYDYWGQGTQVTLSS	high polyreactivity
QVQLVESGGGLVQAGGSLRLSCAASGRTFQQNAMGWYRQAPGKERELVAAINSRGGRTYYADSVKGRFTISRDTAKNTVYLQMNSLKPEDTAVYYCAARYYWGQGTQVTVSS	high polyreactivity
QVQLVESGGGLVQAGGSLRLSCAASGLIIPFYAMGWYRQAPGKERELVAAISWSAGSTYYADSVKGRFTISRDNAKNTVYLQMNSLKPEDTAVYYCAATAYYYYDYDYWGQGTQVTVSS	low polyreactivity
QVQLVESGGGLVQAGGSLRLSCAASGSIFSRYAMGWYSQAPGKELELVAAISWRGGSTYYADSVKGRFTISRDNAKNTVYLQMNSLKPEDTAVYYCAVRDYRPYSRFDFWGQGTQVTVSS	high polyreactivity
QVHLVESGGGLLQAGGSLRLSFAASGTFYYYAMGWNRQAPGKERELVATISWDSASTYYADSVKGRFTISRDNAKNTVYLQMNSLKPEDTGVYYCAAGGSSSWAFNYWGQGTQVTVSS	low polyreactivity
QVQLVESGGGLVQAGGSLRLSCAASGFIFAKYAMGWYRQAPGKERALGAAITSGGSTNYADSVKGRFTISRDNAKNTLYLQMNSLNPEDTAVYSCNRGFDWCYRYRHYDYWGQGTQVTVSS	low polyreactivity
QVQLVESGGGLVQAGGSIRLSCAASGSIFRPYVMGWSRPAPGKERELVAAISSRGGDTYYADYVKGRFTISRDYAKNTVNVQMISLKPEDTAVYYCNARYYTSYDYWGQGSQVTVSS	low polyreactivity
QVQLVDTGGGLVQAGGSLRLICAASGLTFSYNAMGWYRQAPGKERELVAAITVSGGRTYYADSVKGRFTISRDNAKNTVYLQMNSLKAEDTAVYYCNADYDEGYYGYLRYDYDYWGQGTQVTVSS	high polyreactivity
QVQLVESGGGLVQAGGSLRLSCAASGRIFFKNTMGWYRQAPGNESELVAAITSSGSSTYYADSVKARFTISRDNSKNNVYLQMNSLKPEDTAVYYCNALTWDHSRTGVDYWGQGTQVTVSS	low polyreactivity
QVQLVEAGGGLVQAGGSLRLSCAASGSTFRRYAMGWYRQAPGKERVLVAAITTRGGSTYYADSVKGRFTISRDNAKNTVYLQMNSLKPEDTAVYYCARDYSTYLRTAGDYWGQGTQVTVSS	low polyreactivity
QVQLVESGGGLVQAGGSLRLSCAASGLTFWDNAMGWYRQARGKERELVAAIRGGGSTYYADSVKGRFTISRDNAKNTVYLQMNSIIPEDTAVYYCNKQYWYWSNTLTIRDYWGQGTQVTVSS	low polyreactivity
QVQLVESGGGLVQAGGSLRLSCAASGSIFRFYVMGWYRPAPGKERELVAAISIGGSTNYADSVKGRFTISRDNAKNTVYLQMNSLKPEDTAVYYCAADYWYGAVLPHGTEFDYWGQGTQVTVSS	low polyreactivity
QVQLVESGGGLVQAGGSLRLSCAASGLTFVQYTMGWYRQAPGKERELVAVITSASSTNYADSVKGRFTISRDNAKNTVYLQMNSLKPEDTAVYYCNATTYPYYTNSYQYEYWGQGTQVTVSS	low polyreactivity
QVQLVESGGGLVQAAGSLRLSCAASGSIFLSYAMGWYRQAPGKERELVAAITTDGGTNYADSVKGRFTISRDNAKNTVYLQMNSLKPEDSAVYYCAADSDPIPLIDYTLPMDYWGQGTQVTVSS	low polyreactivity
QVQLVDSGVGLVQAGGRLRLSCAASGRIFPFNAMGWYRQSPGKERELVAAITSSGGRTYYADSVKGRFTISRDNAKNTVYLQMNSLKPVDTAVYYCAATLVRRARSGPMGYWGQGTQVTVSS	high polyreactivity
QVQLVESGGGLVQAGGILRLSCASSGSIFGYYAMGWYRQAPGKERELVAAIDSGGGSTYYADSVKERFTISRDNAKNTVYFQMNSLKPEDTAVYYCAAVSYSYPSLLYEYWGQGTQVTVSS	low polyreactivity
QVQLVESGGGLVQAGGSLRLSCAASGRTFLIYDMGWYRQAPGKVRELVAAIRDRGATTYYADSVKGRFTISRDNAKNTVYLHMNSLKPEDTSVYYCSARNGAYPALKEGDYWGQGTQVTVSS	high polyreactivity
QVQLVESGGGLVQAGGSLRLSCAASRFIFWPYAMGWYRPAPGKERELVAAITTGGSTNYADSVKGRFTISRDNAKNTVYFQMNSLKPEDTAVYYCAKGYYFGYYEFVYWGQGTQVTVSS	high polyreactivity
